The results in this text go back to PMC5876120 (2019).

What is called Kd is the concentration at which binding is half-saturated. Low readings indicate higher affinity, high ones lower affinity.

B1: Caspr2 ECD (protein)
chain: APSTSQKCDEPLVSGLPHVAFSSSSSISGSYSPGYAKINKRGGAGGWSPSDSDHYQWLQVDFGNRKQISAIATQGRYSSSDWVTQYRMLYSDTGRNWKPYHQDGNIWAFPGNINSDGVVRHELQHPIIARYVRIVPLDWNGEGRIGLRIEVYGCSYWADVINFDGHVVLPYRFRNKKMKTLKDVIALNFKTSESEGVILHGEGQQGDYITLELKKAKLVLSLNLGSNQLGPIYGHTSVMTGSLLDDHHWHSVVIERQGRSINLTLDRSMQHFRTNGEFDYLDLDYEITFGGIPFSGKPSSSSRKNFKGCMESINYNGVNITDLARRKKLEPSNVGNLSFSCVEPYTVPVFFNATSYLEVPGRLNQDLFSVSFQFRTWNPNGLLVFSHFADNLGNVEIDLTESKVGVHINITQTKMSQIDISSGSGLNDGQWHEVRFLAKENFAILTIDGDEASAVRTNSPLQVKTGEKYFFGGFLNQMNNSSHSVLQPSFQGCMQLIQVDDQLVNLYEVAQRKPGSFANVSIDMCAIIDRCVPNHCEHGGKCSQTWDSFKCTCDETGYSGATCHNSIYEPSCEAYKHLGQTSNYYWIDPDGSGPLGPLKVYCNMTEDKVWTIVSHDLQMQTPVVGYNPEKYSVTQLVYSASMDQISAITDSAEYCEQYVSYFCKMSRLLNTPDGSPYTWWVGKANEKHYYWGGSGPGIQKCACGIERNCTDPKYYCNCDADYKQWRKDAGFLSYKDHLPVSQVVVGDTDRQGSEAKLSVGPLRCQGDRNYWNAASFPNPSSYLHFSTFQGETSADISFYFKTLTPWGVFLENMGKEDFIKLELKSATEVSFSFDVGNGPVEIVVRSPTPLNDDQWHRVTAERNVKQASLQVDRLPQQIRKAPTEGHTRLELYSQLFVGGAGGQQGFLGCIRSLRMNGVTLDLEERAKVTSGFISGCSGHCTSYGTNCENGGKCLERYHGYSCDCSNTAYDGTFCNKDVGAFFEEGMWLRYNFQAPATNARDSSSRVDNAPDQQNSHPDLAQEEIRFSFSTTKAPCILLYISSFTTDFLAVLVKPTGSLQIRYNLGGTREPYNIDVDHRNMANGQPHSVNITRHEKTIFLKLDHYPSVSYHLPSSSDTLFNSPKSLFLGKVIETGKIDQEIHKYNTPGFTGCLSRVQFNQIAPLKAALRQTNASAHVHIQGELVESNCGASPLTLSPMSSATDPWHLDHLDSASADFPYNPGQGQAIRNGVNRNSA
B2: contactin-2 ECD (protein)
chain: SQTTFGPVFEDQPLSVLFPEESTEEQVLLACRARASPPATYRWKMNGTEMKLEPGSRHQLVGGNLVIMNPTKAQDAGVYQCLASNPVGTVVSREAILRFGFLQEFSKEERDPVKAHEGWGVMLPCNPPAHYPGLSYRWLLNEFPNFIPTDGRHFVSQTTGNLYIARTNASDLGNYSCLATSHMDFSTKSVFSKFAQLNLAAEDTRLFAPSIKARFPAETYALVGQQVTLECFAFGNPVPRIKWRKVDGSLSPQWTTAEPTLQIPSVSFEDEGTYECEAENSKGRDTVQGRIIVQAQPEWLKVISDTEADIGSNLRWGCAAAGKPRPTVRWLRNGEPLASQNRVEVLAGDLRFSKLSLEDSGMYQCVAENKHGTIYASAELAVQALAPDFRLNPVRRLIPAARGGEILIPCQPRAAPKAVVLWSKGTEILVNSSRVTVTPDGTLIIRNISRSDEGKYTCFAENFMGKANSTGILSVRDATKITLAPSSADINLGDNLTLQCHASHDPTMDLTFTWTLDDFPIDFDKPGGHYRRTNVKETIGDLTILNAQLRHGGKYTCMAQTVVDSASKEATVLVRGPPGPPGGVVVRDIGDTTIQLSWSRGFDNHSPIAKYTLQARTPPAGKWKQVRTNPANIEGNAETAQVLGLTPWMDYEFRVIASNILGTGEPSGPSSKIRTREAAPSVAPSGLSGGGGAPGELIVNWTPMSREYQNGDGFGYLLSFRRQGSTHWQTARVPGADAQYFVYSNESVRPYTPFEVKIRSYNRRGDGPESLTALVYSAEEEPRVAPTKVWAKGVSSSEMNVTWEPVQQDMNGILLGYEIRYWKAGDKEAAADRVRTAGLDTSARVSGLHPNTKYHVTVRAYNRAGTGPASPSANATTMKPPPRRPPGNISWTFSSSSLSIKWDPVVPFRNESAVTGYKMLYQNDLHLTPTLHLTGKNWIEIPVPEDIGHALVQIRTTGPGGDGIPAEVHIVRNGGTSMMVEN

The experiment “contactin-2 ECD” has as its target B2. Put plainly: solid phase binding assay.
The target of the experiment “Caspr2 ECD” is B1. Put plainly: solid phase binding assay.

Molecule B1 showed a Kd with contactin-2 ECD of 12 nM. B2: the Kd in the experiment with Caspr2 ECD came to 15 nM.
